Reference: patent publication US20240270821A1, “GIP/GLP1/GCG TRI-RECEPTOR AGONISTS AND USES THEREOF” (priority 2023, published 2024)

T1: human GIP receptor (human) (UniProt P48546)
T1 sequence (looked up): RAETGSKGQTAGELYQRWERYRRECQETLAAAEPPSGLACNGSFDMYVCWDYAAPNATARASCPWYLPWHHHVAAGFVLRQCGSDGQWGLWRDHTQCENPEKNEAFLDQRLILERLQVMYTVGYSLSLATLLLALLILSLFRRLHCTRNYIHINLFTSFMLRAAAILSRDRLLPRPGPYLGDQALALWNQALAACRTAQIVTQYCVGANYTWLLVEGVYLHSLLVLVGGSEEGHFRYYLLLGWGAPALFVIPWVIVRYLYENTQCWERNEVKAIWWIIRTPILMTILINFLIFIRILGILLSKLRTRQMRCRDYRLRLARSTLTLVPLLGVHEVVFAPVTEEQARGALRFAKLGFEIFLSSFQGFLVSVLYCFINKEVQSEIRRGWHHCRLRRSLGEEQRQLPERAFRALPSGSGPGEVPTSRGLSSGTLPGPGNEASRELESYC


How the values were obtained:
Assay in all cases: cell-based or functional assay
[1] = molecular target: hGLP-1R (Homo sapiens, UniProt P43220)
[2] = molecular target: T1, human GIP receptor (human)
[3] = molecular target: human glucagon receptor (human) (UniProt P47871)
Sequence of human glucagon receptor (human) (P47871 26-477): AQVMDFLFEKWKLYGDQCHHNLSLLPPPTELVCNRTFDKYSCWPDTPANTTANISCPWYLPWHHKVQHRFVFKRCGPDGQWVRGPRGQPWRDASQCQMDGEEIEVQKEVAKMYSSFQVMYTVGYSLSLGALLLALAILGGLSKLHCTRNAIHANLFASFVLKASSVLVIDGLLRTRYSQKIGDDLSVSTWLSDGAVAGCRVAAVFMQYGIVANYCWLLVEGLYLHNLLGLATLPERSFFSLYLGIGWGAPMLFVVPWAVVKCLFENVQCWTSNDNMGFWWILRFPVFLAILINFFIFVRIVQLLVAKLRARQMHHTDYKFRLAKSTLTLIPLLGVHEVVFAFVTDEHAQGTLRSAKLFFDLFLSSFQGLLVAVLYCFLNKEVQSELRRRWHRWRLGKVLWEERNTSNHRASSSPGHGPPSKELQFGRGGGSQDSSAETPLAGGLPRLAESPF

Sequence of hGLP-1R (P43220 24-463): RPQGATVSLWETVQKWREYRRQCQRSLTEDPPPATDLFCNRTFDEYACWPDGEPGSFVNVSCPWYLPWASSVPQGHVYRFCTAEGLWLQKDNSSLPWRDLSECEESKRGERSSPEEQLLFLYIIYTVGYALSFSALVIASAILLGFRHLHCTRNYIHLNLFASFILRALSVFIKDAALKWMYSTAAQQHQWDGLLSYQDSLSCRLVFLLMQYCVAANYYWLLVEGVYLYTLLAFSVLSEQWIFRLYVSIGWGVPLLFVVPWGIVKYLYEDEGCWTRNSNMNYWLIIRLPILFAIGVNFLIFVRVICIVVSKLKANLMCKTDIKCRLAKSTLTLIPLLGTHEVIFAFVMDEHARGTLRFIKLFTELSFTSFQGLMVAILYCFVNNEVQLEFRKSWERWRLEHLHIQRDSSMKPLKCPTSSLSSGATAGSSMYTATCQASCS

| Binder | Relative cAMP EC50 [1] | cAMP Rel EC50, nM (1% HSA) [1] | Relative cAMP EC50 [2] | cAMP Rel EC50, nM (1% HSA) [2] | Relative cAMP EC50 [3] | cAMP Rel EC50, nM (1% HSA) [3] |
| --- | --- | --- | --- | --- | --- | --- |
| YXQGTFTSDXSQXLDKKAQXAFIEYLIAGGPSSGEPPPSGSGE (non-natural residues; (γGlu)2-C18 diacid acyl; synthetic construct; SITE 2: note = 2-Aminoisobutyric Acid; SITE 10: note = 3-(4-Pyridyl)-L-alanine; SITE 13: note = alpha-methyl-leucine; SITE 17: note = Lysine is chemically modified through conjugation of the epsilon-amino group of the Lysine side chain with (gamma-Glu)2-CO-(CH2)16-CO2H; SITE 20:) [Example 971] | 3.46 nM | 294 nM | 0.298 nM | 30.2 nM | 8.26 nM | 1340 nM |
| YXQGTFTSDXSXXLDXKAQXQFIEXLIEGGPSSGAPPPSGSEE (non-natural residues; (γGlu)2-C18 diacid on Lys; C-terminal amide; synthetic construct; SITE 2: note = 2-Aminoisobutyric Acid; SITE 10: note = 3-(4-Pyridyl)-L-alanine; SITE 12: note = L-ornithine; SITE 13: note = alpha-methyl-leucine; SITE 16: note = L-ornithine; SITE 17: note = Lysine is chemically modified through conjugation of the epsilon-amino group of the Lys) [Example 972] |  | 327 nM |  | 30.4 nM |  | 660 nM |
| YXQGTFTSDXSXXLDXKAQXEFIEXLIEGGPSSGAPPPSGSEE (Aib, 4Pal, Orn, Me4Pal, αMeY; acylated lysine; amide; synthetic construct; SITE 2: note = 2-Aminoisobutyric Acid; SITE 10: note = 3-(4-Pyridyl)-L-alanine; SITE 12: note = L-ornithine; SITE 13: note = alpha-methyl-leucine; SITE 16: note = L-ornithine; SITE 17: note = Lysine is chemically modified through conjugation of the epsilon-amino group of the Lys) [Example 973] |  | 1140 nM |  | 60.1 nM |  | 2270 nM |
| YXQGTFTSDXSXXLDXKAQXXFIEXLIEGGPSSGAPPPSGSEE (Aib, 4Pal, Orn, Me4Pal, alpha-methyl-Tyr, lipidated Lys, amide; synthetic construct; SITE 2: note = 2-Aminoisobutyric Acid; SITE 10: note = 3-(4-Pyridyl)-L-alanine; SITE 12: note = L-ornithine; SITE 13: note = alpha-methyl-leucine; SITE 16: note = L-ornithine; SITE 17: note = Lysine is chemically modified through conjugation of the epsilon-amino group of the Lys) [Example 974] |  | 283 nM |  | 80.9 nM |  | 870 nM |
| YXQGTFTSDXSXXLDXKAQXQFIEXLLEGGPSSGAPPPSGSEE (non-natural residues; acylated Lys; C-terminal amide; synthetic construct; SITE 2: note = 2-Aminoisobutyric Acid; SITE 10: note = 3-(4-Pyridyl)-L-alanine; SITE 12: note = L-ornithine; SITE 13: note = alpha-methyl-leucine; SITE 16: note = L-ornithine; SITE 17: note = Lysine is chemically modified through conjugation of the epsilon-amino group of the Lys) [Example 975] |  | 1810 nM |  | 30.1 nM |  | 374 nM |
| YXQGTFTSDXSXXLDXKAQXEFIEXLLEGGPSSGAPPPSGSEE (non-natural residues; lipidated Lys; C-terminal amide; synthetic construct; SITE 2: note = 2-Aminoisobutyric Acid; SITE 10: note = 3-(4-Pyridyl)-L-alanine; SITE 12: note = L-ornithine; SITE 13: note = alpha-methyl-leucine; SITE 16: note = L-ornithine; SITE 17: note = Lysine is chemically modified through conjugation of the epsilon-amino group of the Lys) [Example 976] |  | 2860 nM |  | 82.7 nM |  | 848 nM |
| YXQGTFTSDXSQXLDXKAQXAFIEYLIAGGPSSGEPPPSGSE (Aib, 4Pal, αMeL, Orn, Me4Pal; (γGlu)2-C18 diacid on Lys; synthetic construct; SITE 2: note = 2-Aminoisobutyric Acid; SITE 10: note = 3-(4-Pyridyl)-L-alanine; SITE 13: note = alpha-methyl-leucine; SITE 16: note = L-ornithine; SITE 17: note = Lysine is chemically modified through conjugation of the epsilon-amino group of the Lysine side chain with (gamma-Gl)) [Example 977] | 1.1 nM | 159 nM | 0.189 nM | 23 nM | 7.18 nM | 839 nM |
| YXQGTFTSDXSQXLDXKAQXAFIEYLIAGGPSSGEPPPSGSGE (non-natural residues, acylated Lys; synthetic construct; SITE 2: note = 2-Aminoisobutyric Acid; SITE 10: note = 3-(4-Pyridyl)-L-alanine; SITE 13: note = alpha-methyl-leucine; SITE 16: note = L-ornithine; SITE 17: note = Lysine is chemically modified through conjugation of the epsilon-amino group of the Lysine side chain with (gamma-Gl)) [Example 978] | 1.6 nM | 174 nM | 0.284 nM | 33.9 nM | 8.91 nM | 824 nM |
| YXQGTFTSDXSXXLDKKAQXAFIEYLIAGGPSSGEPPPSGE (non-natural residues (Aib, 4Pal, Orn, αMeL, Me4Pal); lipidated K; amide; synthetic construct; SITE 2: note = 2-Aminoisobutyric Acid; SITE 10: note = 3-(4-Pyridyl)-L-alanine; SITE 12: note = L-ornithine; SITE 13: note = alpha-methyl-leucine; SITE 17: note = Lysine is chemically modified through conjugation of the epsilon-amino group of the Lysine side chain with (gamma-Gl)) [Example 979] | 2.72 nM | 257 nM | 0.181 nM | 19.2 nM | 3.34 nM | 359 nM |
| YXQGTFTSDXSXXLDKKAQXAFIEYLIAGGPSSGEPPPSGTE (non-natural residues (Aib, 4Pal, Orn, αMeL, Me4Pal); lipidated K; amide; synthetic construct; SITE 2: note = 2-Aminoisobutyric Acid; SITE 10: note = 3-(4-Pyridyl)-L-alanine; SITE 12: note = L-ornithine; SITE 13: note = alpha-methyl-leucine; SITE 17: note = Lysine is chemically modified through conjugation of the epsilon-amino group of the Lysine side chain with (gamma-Gl)) [Example 980] | 2.26 nM | 290 nM | 0.18 nM | 15.4 nM | 2.41 nM | 239 nM |
| YXQGTFTSDXSXXLDKKAQXAFIEYLIAGGPSSGEPPPSGTEE (Aib, 4Pal, Orn, αMeL, Me4Pal; K (γGlu)2-C18 diacid; amide; synthetic construct; SITE 2: note = 2-Aminoisobutyric Acid; SITE 10: note = 3-(4-Pyridyl)-L-alanine; SITE 12: note = L-ornithine; SITE 13: note = alpha-methyl-leucine; SITE 17: note = Lysine is chemically modified through conjugation of the epsilon-amino group of the Lysine side chain with (gamma-Gl)) [Example 981] | 4.45 nM | 330 nM | 0.243 nM | 21.1 nM | 3.7 nM | 477 nM |
| YXQGTFTSDXSXXLDKKAQXAFIEYLIAGGPSSGEPPPSGTEEE (Aib, 4Pal, Orn, Me4Pal; lipidated Lys; C-terminal amide; synthetic construct; SITE 2: note = 2-Aminoisobutyric Acid; SITE 10: note = 3-(4-Pyridyl)-L-alanine; SITE 12: note = L-ornithine; SITE 13: note = alpha-methyl-leucine; SITE 17: note = Lysine is chemically modified through conjugation of the epsilon-amino group of the Lysine side chain with (gamma-Gl)) [Example 982] | 4.94 nM | 310 nM | 0.328 nM | 19.4 nM | 3.91 nM | 307 nM |
| YXQGTFTSDXSXXLDXKAQXAFIEYLIAGGPSSGEPPPSGE (Lys acylated (γ-Glu)2-C18 diacid; non-natural residues; C-terminal amide; synthetic construct; SITE 2: note = 2-Aminoisobutyric Acid; SITE 10: note = 3-(4-Pyridyl)-L-alanine; SITE 12: note = L-ornithine; SITE 13: note = alpha-methyl-leucine; SITE 16: note = L-ornithine; SITE 17: note = Lysine is chemically modified through conjugation of the epsilon-amino group of the Lys) [Example 983] | 2.35 nM | 207 nM | 0.289 nM | 19.4 nM | 4.75 nM | 576 nM |
| YXQGTFTSDXSXXLDXKAQXAFIEYLIAGGPSSGEPPPSGTE (Aib, 4Pal, Orn, αMeL, Me4Pal; (γGlu)2-C18 diacid on Lys; amide; synthetic construct; SITE 2: note = 2-Aminoisobutyric Acid; SITE 10: note = 3-(4-Pyridyl)-L-alanine; SITE 12: note = L-ornithine; SITE 13: note = alpha-methyl-leucine; SITE 16: note = L-ornithine; SITE 17: note = Lysine is chemically modified through conjugation of the epsilon-amino group of the Lys) [Example 984] | 2.07 nM | 160 nM | 0.232 nM | 23.5 nM | 4.5 nM | 409 nM |
| YXQGTFTSDXSXXLDXKAQXAFIEYLIAGGPSSGEPPPSGTEE (non-natural residues, acylated Lys, C-terminal amide; synthetic construct; SITE 2: note = 2-Aminoisobutyric Acid; SITE 10: note = 3-(4-Pyridyl)-L-alanine; SITE 12: note = L-ornithine; SITE 13: note = alpha-methyl-leucine; SITE 16: note = L-ornithine; SITE 17: note = Lysine is chemically modified through conjugation of the epsilon-amino group of the Lys) [Example 985] | 2.93 nM | 217 nM | 0.34 nM | 24 nM | 5.41 nM | 374 nM |
